Measurements as given in IntAct's records for PubMed 16278825.

B1: Ras-related protein Rab-27A (Homo sapiens), P51159 (parent)
chain: MSDGDYDYLIKFLALGDSGVGKTSVLYQYTDGKFNSKFITTVGIDFREKRVVYRASGPDGATGRGQRIHLQLWDTAGQERFRSLTTAFFRDAMGFLLLFDLTNEQSFLNVRNWISQLQMHAYCENPDIVLCGNKSDLEDQRVVKEEEAIALAEKYGIPYFETSAANGTNISQAIEMLLDLIMKRMERCVDKSWIPEGVVRSNGHASTDQLSEEKEKGACGC
partner: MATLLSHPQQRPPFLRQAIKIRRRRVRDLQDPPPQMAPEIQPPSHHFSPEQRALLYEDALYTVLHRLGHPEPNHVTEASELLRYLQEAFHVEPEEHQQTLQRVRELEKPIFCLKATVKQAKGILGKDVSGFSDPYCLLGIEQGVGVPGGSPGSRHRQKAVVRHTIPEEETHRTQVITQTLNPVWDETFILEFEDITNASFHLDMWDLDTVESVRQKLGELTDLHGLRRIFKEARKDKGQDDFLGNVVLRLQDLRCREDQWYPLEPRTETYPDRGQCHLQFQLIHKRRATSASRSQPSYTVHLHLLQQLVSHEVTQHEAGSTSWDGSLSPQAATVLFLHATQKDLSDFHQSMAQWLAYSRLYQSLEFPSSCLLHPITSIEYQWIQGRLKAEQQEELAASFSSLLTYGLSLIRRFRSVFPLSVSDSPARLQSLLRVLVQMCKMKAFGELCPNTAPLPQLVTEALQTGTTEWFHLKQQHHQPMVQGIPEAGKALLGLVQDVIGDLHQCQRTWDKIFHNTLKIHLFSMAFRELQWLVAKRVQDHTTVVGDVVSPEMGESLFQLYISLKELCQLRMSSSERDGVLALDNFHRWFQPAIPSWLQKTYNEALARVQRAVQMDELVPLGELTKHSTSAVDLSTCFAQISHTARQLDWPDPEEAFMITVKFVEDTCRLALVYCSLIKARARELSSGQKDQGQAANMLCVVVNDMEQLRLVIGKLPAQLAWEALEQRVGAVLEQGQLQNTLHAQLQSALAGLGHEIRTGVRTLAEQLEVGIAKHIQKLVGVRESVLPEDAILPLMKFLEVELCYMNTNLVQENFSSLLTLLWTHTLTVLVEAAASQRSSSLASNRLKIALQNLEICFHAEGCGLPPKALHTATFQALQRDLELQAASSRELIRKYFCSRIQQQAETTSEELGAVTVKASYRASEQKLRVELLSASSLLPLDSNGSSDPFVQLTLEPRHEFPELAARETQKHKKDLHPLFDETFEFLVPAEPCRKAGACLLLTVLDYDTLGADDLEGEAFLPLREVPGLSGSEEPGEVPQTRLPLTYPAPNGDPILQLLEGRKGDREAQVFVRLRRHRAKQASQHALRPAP
B2: Protein unc-13 homolog D (Homo sapiens), Q70J99 (parent)
chain: B1 partner

Variants of: B1
Conditions: with un13d_human UNC13D

Variant | effect of a mutation on the interaction
A87P | disrupting interaction strength
T23N | disrupting interaction strength
Q78L | with no effect

Variants of: B2
Conditions: with rb27a_human RAB27A

Variant | effect of a mutation on the interaction
L403P | disrupting interaction strength
